Laboratory results taken from paper PMC6076264.

Biological target: ribosomal protein bL12 (E. coli (endogenous in ribosomes of strain MRE600)) (UniProt P0A7K2)
Sequence of UniProt P0A7K2 (P0A7K2 whole entry): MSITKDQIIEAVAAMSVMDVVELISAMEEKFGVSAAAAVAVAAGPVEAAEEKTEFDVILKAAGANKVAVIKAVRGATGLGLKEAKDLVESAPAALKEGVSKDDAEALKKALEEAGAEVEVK

Q: Which apparent affinity of RF1 for pre-hydrolysis complexes (PreHC, 0.01 uM) prepared with bL12-depleted (∆bL12) ribosomes, from peptide hydrolysis (10 s, 37 °C) does the source give for “RF1 (wild type) (from UniProt P0A7I0 1-360) (natural protein)” here?
A: Its apparent affinity of RF1 for pre-hydrolysis complexes (PreHC, 0.01 uM) prepared with bL12-depleted (∆bL12) ribosomes, from peptide hydrolysis (10 s, 37 °C) is 210 nM.

Q: And the apparent affinity of RF1 for pre-hydrolysis complexes (PreHC, 0.01 uM) prepared with wild-type ribosomes bearing bL12, from peptide hydrolysis (10 s, 37 °C)?
A: The apparent affinity of RF1 for pre-hydrolysis complexes (PreHC, 0.01 uM) prepared with wild-type ribosomes bearing bL12, from peptide hydrolysis (10 s, 37 °C) was 9 nM.
